# Source: patent US20210309732A1 (ELIXIRON IMMUNOTHERAPEUTICS HONG KONG, published 2021)
# Changes are numbered by the printed parent chain. Names and notes keep the numbering of the source.
# B1: 1D2 SDR mutant HK54G (antibody, IgG1, V domains shown)
# VH: QVQLVQSGAEVKKPGASVKVSCEASGYTFTDKYLHWVRQAPGQGLEWMAWINPGSGGTFYAQNFKGRVTVTRDTSINTAYLELTSLRLDDTSTYYCARGRDYYDQGAADLWGQGTMVTVSS
# VL: DIQLTQSPSSLSASVGDRVTITCRASQGINSVLAWYQQKPGKAPKLLLYAASKLESGVPSRFSGSGSGTDYTLTISSLQPEDFGTYYCQQYYSPVRTFGQGTKVEIKR
# notes: also called X3 G
# B2: 1D2 SDR mutant HY103N (antibody, IgG1, V domains shown)
# VH: B1 VH with G54K, Y103N
# VL: B1 VL
# notes: also called X6 N
# B3: 1D2 SDR mutant K54G/V32R (antibody, IgG1, V domains shown)
# VH: B1 VH
# VL: B1 VL with V32R
# notes: also called 54G/32R
# B4: 1D2 SDR mutant HY103R (antibody, IgG1, V domains shown)
# VH: B1 VH with G54K, Y103R
# VL: B1 VL
# notes: also called X6 R
# B5: 1D2 SDR mutant LV32R (antibody, IgG1, V domains shown)
# VH: B1 VH with G54K
# VL: B1 VL with V32R
# notes: also called X8 R
# B6: 1D2 SDR mutant LP94N (antibody, IgG1, V domains shown)
# VH: B1 VH with G54K
# VL: B1 VL with P94N
# notes: also called X9 N
# B7: 1D2 SDR mutant HQ105N (antibody, IgG1, V domains shown)
# VH: B1 VH with G54K, Q105N
# VL: B1 VL
# notes: also called X7 N
# B8: 1D2 SDR mutant LV32H (antibody, IgG1, V domains shown)
# VH: B1 VH with G54K
# VL: B1 VL with V32H
# notes: also called X8 H
# B9: 1D2 SDR mutant HY103T (antibody, IgG1, V domains shown)
# VH: B1 VH with G54K, Y103T
# VL: B1 VL
# notes: also called X6 T
# B10: 1D2 SDR mutant LV95P (antibody, IgG1, V domains shown)
# VH: B1 VH with G54K
# VL: B1 VL with V95P
# notes: also called X10 P
# B11: 1D2 SDR mutant HY103V (antibody, IgG1, V domains shown)
# VH: B1 VH with G54K, Y103V
# VL: B1 VL
# notes: also called X6 V
# B12: 1D2 SDR mutant HY103W (antibody, IgG1, V domains shown)
# VH: B1 VH with G54K, Y103W
# VL: B1 VL
# notes: also called X6 W
# B13: 1D2 SDR mutant LP94R (antibody, IgG1, V domains shown)
# VH: B1 VH with G54K
# VL: B1 VL with P94R
# notes: also called X9 R
# B14: 1D2 SDR mutant LV32L (antibody, IgG1, V domains shown)
# VH: B1 VH with G54K
# VL: B1 VL with V32L
# notes: also called X8 L
# B15: 1D2 SDR mutant HY103H (antibody, IgG1, V domains shown)
# VH: B1 VH with G54K, Y103H
# VL: B1 VL
# notes: also called X6 H
# B16: 1D2 SDR mutant HY103G (antibody, IgG1, V domains shown)
# VH: B1 VH with G54K, Y103G
# VL: B1 VL
# notes: also called X6 G
# B17: 1D2 SDR mutant LV95L (antibody, IgG1, V domains shown)
# VH: B1 VH with G54K
# VL: B1 VL with V95L
# notes: also called X10 L
# B18: 1D2 SDR mutant HY103L (antibody, IgG1, V domains shown)
# VH: B1 VH with G54K, Y103L
# VL: B1 VL
# notes: also called X6 L
# B19: 1D2 SDR mutant HY103S (antibody, IgG1, V domains shown)
# VH: B1 VH with G54K, Y103S
# VL: B1 VL
# notes: also called X6 S
# B20: 1D2 SDR mutant HY103P (antibody, IgG1, V domains shown)
# VH: B1 VH with G54K, Y103P
# VL: B1 VL
# notes: also called X6 P
# B21: 1D2 SDR mutant LV32F (antibody, IgG1, V domains shown)
# VH: B1 VH with G54K
# VL: B1 VL with V32F
# notes: also called X8 F
# B22: 1D2 SDR mutant HY103F (antibody, IgG1, V domains shown)
# VH: B1 VH with G54K, Y103F
# VL: B1 VL
# notes: also called X6 F
# B23: 1D2 SDR mutant LV95D (antibody, IgG1, V domains shown)
# VH: B1 VH with G54K
# VL: B1 VL with V95D
# notes: also called X10 D
# B24: 1D2 SDR mutant HY103K (antibody, IgG1, V domains shown)
# VH: B1 VH with G54K, Y103K
# VL: B1 VL
# notes: also called X6 K
# B25: 1D2 SDR mutant LV32Y (antibody, IgG1, V domains shown)
# VH: B1 VH with G54K
# VL: B1 VL with V32Y
# notes: also called X8 Y
# B26: 1D2 SDR mutant LV32E (antibody, IgG1, V domains shown)
# VH: B1 VH with G54K
# VL: B1 VL with V32E
# notes: also called X8 E
# B27: 1D2 SDR mutant HY103Q (antibody, IgG1, V domains shown)
# VH: B1 VH with G54K, Y103Q
# VL: B1 VL
# notes: also called X6 Q
# B28: 1D2 SDR mutant HY103M (antibody, IgG1, V domains shown)
# VH: B1 VH with G54K, Y103M
# VL: B1 VL
# notes: also called X6 M
# B29: 1D2 SDR mutant LV95E (antibody, IgG1, V domains shown)
# VH: B1 VH with G54K
# VL: B1 VL with V95E
# notes: also called X10 E
# B30: 1D2 SDR mutant LV95R (antibody, IgG1, V domains shown)
# VH: B1 VH with G54K
# VL: B1 VL with V95R
# notes: also called X10 R
# B31: 1D2 SDR mutant LV32P (antibody, IgG1, V domains shown)
# VH: B1 VH with G54K
# VL: B1 VL with V32P
# notes: also called X8 P
# B32: 1D2 SDR mutant HY103D (antibody, IgG1, V domains shown)
# VH: B1 VH with G54K, Y103D
# VL: B1 VL
# notes: also called X6 D
# B33: 1D2 SDR mutant LV95C (antibody, IgG1, V domains shown)
# VH: B1 VH with G54K
# VL: B1 VL with V95C
# notes: also called X10 C
# B34: 1D2 SDR mutant LP94C (antibody, IgG1, V domains shown)
# VH: B1 VH with G54K
# VL: B1 VL with P94C
# notes: also called X9 C
# B35: 1D2 SDR mutant LV32G (antibody, IgG1, V domains shown)
# VH: B1 VH with G54K
# VL: B1 VL with V32G
# notes: also called X8 G
# Biological target: T1, recombinant human GM-CSF (human, UniProt P04141 18-144)
# T1 construct: also called rhGM-CSF; CSF2
# T1 sequence (P04141 18-144 limits assumed): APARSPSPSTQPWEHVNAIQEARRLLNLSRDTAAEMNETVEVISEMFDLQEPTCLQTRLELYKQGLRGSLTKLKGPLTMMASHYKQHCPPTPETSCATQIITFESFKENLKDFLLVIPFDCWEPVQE
# Test: Biacore
Binder,Ka [M⁻¹],Kd [nM],koff [s⁻¹],kon [M⁻¹ s⁻¹]
B1,2.89e+09,0.346,0.000448,1.3e+06
B2,2.5e+09,0.4,0.000669,1.67e+06
B3,5.23e+08,1.91,0.00197,1.03e+06
B4,2.42e+09,0.414,0.00057,1.38e+06

# Biological target: T1, recombinant human GM-CSF
# Test: Gator, Coating Ag
row,Binder,Kd [nM]
1,B3,0.0222

# Biological target: T1, recombinant human GM-CSF
# Test: Gator, Coating Ab
row,Binder,Kd [nM]
1,B3,0.929

# Biological target: T1, recombinant human GM-CSF
# Test: cell-based or functional assay
Binder,"IC50 (M), inhibition of GM-CSF induced TF-1 cell proliferation (FIG. 5B) [M]","IC50 (M), inhibition of GM-CSF induced TF-1 cell proliferation (FIG. 5A) [M]"
B1,1.87e-09,–
B5,2.48e-09,–
B6,1.49e-09,–
B2,3.6e-09,3.41e-09
B7,7.67e-09,–
B3,6.62e-09,–
B4,3.47e-09,–

# Biological target: T1, recombinant human GM-CSF
# Test: Gator (pro), Coating Ag
row,Binder,Kd [nM]
1,B3,0.000746

# Biological target: T1, recombinant human GM-CSF
# Test: ELISA on coated rhGM-CSF, UBA relative to 1D2
# How it was run: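 Antibody clones carrying SDR point mutants in VH or VL, each paired with the wild-type chain, were expressed in HEK293 cells. Culture media diluted 1:12000 were bound to plates coated with rhGM-CSF at 1 μg/mL for 1 h at room temperature. Detection used HRP anti-human antibody and Amplex Red fluorescence (Ex530/Em590), with UBA = fluorescence signal/dilution factor.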
row,Binder,binding affinity % of 1D2 [%]
1,B1,114
2,B8,128
3,B5,1030
4,B9,104
5,B10,46
6,B11,88
7,B12,139
8,B13,146
9,B14,167
10,B15,109
11,B6,60
12,B16,138
13,B17,41
14,B18,67
15,B2,130
16,B19,85
17,B7,156

row,Binder,binding affinity % of 1D2 [%]
1,B20,141
2,B21,109
3,B22,81
4,B23,47
5,B24,143
6,B25,114
7,B26,110
8,B27,74
9,B28,94
10,B29,40
11,B30,45
12,B31,581
13,B32,134
14,B33,46
15,B34,253
16,B35,297
17,B4,115

# Biological target: T1, recombinant human GM-CSF
# Test: Biacore
# Remark: another data set of the same source
row,Binder,Kd [nM]
1,B3,1.5
